Reference: the Immune Epitope Database (IEDB)

Legend:
HLA-A*02:02 = test: IEDB peptide-MHC binding, cellular MHC/competitive/fluorescence; ≥ and ≤ were set here for values at or beyond the usual limits of such assays
HLA-A*68:02 [1] = test: as above
HLA-A*02:01 [2] = test: IEDB peptide-MHC binding, purified MHC/competitive/radioactivity; ≥ and ≤ were set here for values at or beyond the usual limits of such assays
HLA-A*02:03 = test: as above
HLA-A*02:06 = test: as above
HLA-A*02:01 [3] = test: IEDB peptide-MHC binding, cellular MHC/competitive/fluorescence; ≥ and ≤ were set here for values at or beyond the usual limits of such assays
HLA-A*68:02 [4] = test: IEDB peptide-MHC binding, purified MHC/competitive/radioactivity; ≥ and ≤ were set here for values at or beyond the usual limits of such assays
[5] = source organism: Vaccinia virus WR
[6] = source organism: Influenza A virus
[7] = source organism: Mammarenavirus lassaense

Sequence | IC50 (HLA-A*02:02; [5]) [µM] | IC50 (HLA-A*68:02 [1]; [5]) [µM] | IC50 (HLA-A*02:01 [2]; [5]) [µM] | IC50 (HLA-A*02:03; [5]) [µM] | IC50 (HLA-A*02:06; [5]) [µM] | IC50 (HLA-A*02:01 [3]; [5]) [µM] | IC50 (HLA-A*68:02 [4]; [5]) [µM] | further results
VILKDPRIA | 10.6 | 37.9 | 0.697 | 0.603 | 0.318 |  |  | 
DLTALLSCI | 5.2 |  |  | 0.996 | 4.88 | 13.5 | 1.78 | 
KINNNRIVAM | 9.12 | 22.7 |  | 1.3 | 3.18 | 23.7 |  | 
FIISTLNKIL | 5.08 | 11.7 | 0.17 | 0.0018 | 0.0081 |  |  | 
GIKGLDERFV | 6.19 |  | 4.39 | 0.844 | 0.94 |  | 0.492 | 
LVQYRILPM | 14.8 | 59.6 |  | 1.17 | 4.67 | 34.7 |  | 
CVNGSCFTV |  |  |  |  |  |  |  | IC50 (HLA-A*02:02; [6]): 12.4 µM; IC50 (HLA-A*02:01 [2]; [6]): 3.95 µM; IC50 (HLA-A*68:02 [4]; [6]): 3.25 µM; IC50 (HLA-A*02:03; [6]): 1.13 µM; IC50 (HLA-A*02:06; [6]): 1.99 µM
LVQYRILPMI | 12.5 | 12.5 | 2.54 | 1.2 | 0.712 |  |  | 
KTPLYYLSGT | 21.9 | 34.3 |  | 3.11 | 1.42 | 45 |  | 
IVCSKTVKNV | 10.8 |  | 1.42 | 0.503 | 2.76 |  | 1.73 | 
MSIQLINKAV |  |  |  |  |  |  |  | IC50 (HLA-A*02:01 [3]; [7]): 7.21 µM; IC50 (HLA-A*02:02; [7]): 11.4 µM; IC50 (HLA-A*68:02 [4]; [7]): 0.011 µM; IC50 (HLA-A*02:03; [7]): 1.8 µM; IC50 (HLA-A*02:06; [7]): 0.619 µM
VAMLLTHGA | 7.16 | 9.47 |  | 0.628 | 0.726 | 8.93 |  | 
HTNHSDISM | 8.81 |  |  | 4.14 | 1.2 | 12.1 | 0.026 | 
YVILKDPRIA | 6.01 | 19 |  | 0.355 | 1.9 | 39.5 |  | 
GVPHSVFIA | 5.37 |  |  | 3.63 | 0.101 | 5.35 | 2.99 | 
NINIEVKLFI | 12.5 | 7.44 | 1.17 | 2.05 | 2.32 |  |  | 
AAMDDFQLI |  |  |  |  |  |  |  | IC50 (HLA-A*02:01 [3]; [6]): 7.96 µM; IC50 (HLA-A*02:02; [6]): 9.59 µM; IC50 (HLA-A*68:02 [1]; [6]): 57.9 µM; IC50 (HLA-A*02:03; [6]): 1.73 µM; IC50 (HLA-A*02:06; [6]): 0.099 µM

Sequence | IC50 (HLA-A*02:02; [5]) [µM] | IC50 (HLA-A*68:02 [1]; [5]) [µM] | IC50 (HLA-A*02:01 [2]; [5]) [µM] | IC50 (HLA-A*02:03; [5]) [µM] | IC50 (HLA-A*02:06; [5]) [µM] | IC50 (HLA-A*02:01 [3]; [5]) [µM] | IC50 (HLA-A*68:02 [4]; [5]) [µM] | further results
TISWMMKLGI | 7.84 |  | 4.57 | 0.972 | 2.78 |  | 1.48 | 
GAAITLVVI | 6.45 | 7.26 | 1.08 | 3.28 | 2.95 |  |  | 
VLEKKVCAI | 14.4 | 45.4 | 1.37 | 2.31 | 3.39 |  |  | 
RTIDAINKCV | 10.8 |  |  | 0.334 | 0.341 | 25 | 0.289 | 
VIDRLPSET | 7.08 | 8.57 | 3.5 | 0.742 | 3.67 |  |  | 
YASLTTIGTI | 6.29 |  |  | 0.398 | 0.084 | 8.42 | 0.133 | 
TQVKELGIA | 7.22 | 23.4 |  | 0.052 | 0.056 | 12.4 |  | 
QQLCTMERT | ≥ 70 | ≥ 70 |  | 4.52 | 0.929 | 46.7 |  | 
DLLLPSTDV | 15.1 | 13.3 | 1.48 | 3.9 | 1.06 |  |  | 
VQLSNNKYV | 7.34 | ≥ 70 | 1.82 | 0.541 | 0.214 |  |  | 
STVDVRNIV | 6.33 |  |  | 3.48 | 1.63 | 8.07 | 0.018 | 
VQLPKRGVRV | 33.7 | 55.7 | 1.64 | 2.21 | 0.041 |  |  | 
HINDQKFDDV | 5.86 |  |  | 1.16 | 1.19 | 13.2 | 1.12 | 
FAFIDFSKST | 11.8 | 5.06 |  | 2.41 | 1.41 | 7.72 |  | 
EVIERINLLV | 19.7 |  | 2.69 | 3.33 | 0.3 |  | 0.02 | 
VTDKTAYIGT | 21.8 | 6.47 |  | 4 | 0.227 | 6.62 |  | 
